The target in series [1] is hepatitis B virus (HBV) capsid protein (hepatitis B virus) (UniProt P03146). Kind of series: native MS.
The series “native MS” deals with the molecule itself. Kind of series: native MS.

Several values for one entry are separate records, joined by “and”; a condition that tells them apart may be missing. Equal entries are not always repeated.

Broadly, the stoichiometry N is a count of units in the complex or per binding partner.

“hepatitis B virus (HBV) capsid protein (from UniProt P03146 1-183) (natural protein)”: in series [1], the stoichiometry N is 240 and 180.

B1: cholera toxin B (natural protein)
chain: TPQNITDLCAEYHNTQIYTLNDKIFSYTESLAGKREMAIITFKNGAIFQVEVPGSQHIDSQKKAIERMKDTLRIAYLTEAKVEKLCVWNNKTPHAIAAISMAN
notes: also called CTB
Consider B1, for which the binding result in the series “native MS” is listed as “binds”.

Source of the values: article PMC13054468 (Analytical chemistry, 2025).
